Consider 80 sequences from the supplement of paper PMC10724198.

± gives the standard deviation of the averaged measurements.
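Note: PSI is a weighted mean of sequencing reads over stability bins, variants kept only with over 10 reads, mCherry proximal and sfGFP distal, peptide attached via GGGS linker.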

The data set has as its system Saccharomyces cerevisiae. The data set is described as follows: protein stability index of tFT-peptide fusion (C-terminal peptide) (PSI (0-1 scale)); higher = more stable (slower turnover). Particulars: genetic background: wild type; temperature: 30 C.
The sequence SVSPLSSSTLTA registered a protein stability index of 0.65 ± 0.019.
SVSSSVGRGLRV displayed a protein stability index of 0.711 ± 0.014.
In turn, SVVSWRGRNRSV gave a protein stability index of 0.864 ± 0.065.
In the case of SVVVGTVFCRSW, the protein stability index worked out at 0.615 ± 0.015.
Regarding SVWCRRRRVTNS, the protein stability index was found to be 0.5825 ± 0.0054.
For SVWCRWGWSDWG, the protein stability index is 0.795 ± 0.051.
Take SVWGIVWRGNIV: the protein stability index came out at 0.704 ± 0.024.
Sequence SVWLISPRPLSV came in with a protein stability index of 0.5639 ± 0.0032.
SVYCVLSRGNRL showed a protein stability index of 0.687 ± 0.1.
Turning to SWAGGRWRRVPV, the protein stability index is 0.658 ± 0.04.
Regarding SWEIGHLLPGTD, the protein stability index turned out to be 0.6671 ± 0.0048.
SWFTHTQSVRCS yielded a protein stability index of 0.515 ± 0.014.
As to SWMDRGGAYSGI, the protein stability index came out at 0.731 ± 0.11.
In turn, SWPSLDLVSRMQ had a protein stability index of 0.676 ± 0.038.
Sequence TAKQDSGVSTPV yielded a protein stability index of 0.732 ± 0.12.
As to TAMNNGNSIHKL, the protein stability index came out at 0.682 ± 0.041.
In turn, TASKHINYKCLA had a protein stability index of 0.711 ± 0.16.
On to TATYCFNALRRS, for which the protein stability index worked out at 0.72 ± 0.052.
TAVPPLFARTWQ: the protein stability index turned out to be 0.6786 ± 0.0049.
For TCVRHKVQKSRE, the protein stability index was 0.688 ± 0.058.
TDWGLTPRGRVT displayed a protein stability index of 0.777 ± 0.062.
On to TEHLLTRGRRNT, for which the protein stability index came to 0.64 ± 0.032.
In the case of TESGKEKLDVIS, the protein stability index is 0.689 ± 0.007.
On to TEYHIVTLPRRC, for which the protein stability index came out at 0.625 ± 0.076.
With TFARMYRKGSED, the protein stability index came to 0.686 ± 0.0077.
For TFFSAPLLPSIP the value was 0.73783 ± 0.00011.
On to TFLPAPSPTSPP, for which the protein stability index came out at 0.724 ± 0.032.
On to TFLRGSILLVSP, for which the protein stability index came out at 0.617 ± 0.059.
As for TFPHSWHISSVP, the protein stability index turned out to be 0.677 ± 0.024.
Regarding TFPPLLFVCSLL, the protein stability index was 0.594 ± 0.0078.
On to TGDNNRGKRDYD, for which the protein stability index was determined as 0.678 ± 0.024.
The sequence TGKRADGGAEGG gave a protein stability index of 0.686 ± 0.0086.
In turn, TGRAPGSDVLAS registered a protein stability index of 0.7139 ± 0.0029.
TGREGARVGIGR gave a protein stability index of 0.687 ± 0.01.
Turning to TGREWCFERGCW, the protein stability index was found to be 0.842 ± 0.14.
For the sequence TGRNIGRVKIYL, the protein stability index was found to be 0.665 ± 0.049.
In the case of TGSRGPHRKPPD, the protein stability index worked out at 0.691 ± 0.0077.
For THFPFPVLFSLP the value was 0.592 ± 0.03; for THSPSPTTAPIP, 0.688 ± 0.011; for THTEWVQFIRWY, 0.733 ± 0.073.
For TIETKVNSKDDS the value was 0.735 ± 0.031; for TIIPRHTFLPAP, 0.723 ± 0.036.
For TIKNKKRKPKKK the value was 0.702 ± 0.044; for TILAGSSRGTLR, 0.659 ± 0.061.
In turn, TINVWFARTNPD returned a protein stability index of 0.7403 ± 0.0048.
TIQPSVTNPTLN: the protein stability index was found to be 0.686 ± 0.04.
Sequence TIRKKKNRRNKE gave a protein stability index of 0.731 ± 0.016.
The sequence TISEGMSGRRRR showed a protein stability index of 0.759 ± 0.013.
The sequence TIVQNLEIVQAR displayed a protein stability index of 0.648 ± 0.13.
For TIVSFYVRFLSG the value was 0.583 ± 0.15; for TIWLTFGRTPQS, 0.731 ± 0.042.
In the case of TKCGESRENARI, the protein stability index amounted to 0.681 ± 0.022.
The sequence TKHRFPKYRYLG had a protein stability index of 0.5868 ± 0.0011.
Sequence TKILRGQKRRAA showed a protein stability index of 0.637 ± 0.1.
For TKKKNTKKNNNT, the protein stability index amounted to 0.67 ± 0.095.
In turn, TKRKEKHKIIGK registered a protein stability index of 0.705 ± 0.046.
For TKRQTIEIIKKK, the protein stability index turned out to be 0.809 ± 0.11.
In turn, TLALQFPFKLLF showed a protein stability index of 0.653 ± 0.025.
Turning to TLATHCDVHFTR, the protein stability index is 0.734 ± 0.077.
TLDKGRFSPAHL came in with a protein stability index of 0.754 ± 0.049.
TLDTICNTTKQR: the protein stability index was found to be 0.675 ± 0.047.
Regarding TLFPPLCVFSFC, the protein stability index amounted to 0.587 ± 0.03.
Regarding TLFSNILRSPHS, the protein stability index was 0.696 ± 0.035.
TLGALEVSVYET had a protein stability index of 0.614 ± 0.0097.
The sequence TLGLLPDVCVEL yielded a protein stability index of 0.683 ± 0.021.
TLGSSTPFPCFP came in with a protein stability index of 0.716 ± 0.059.
Sequence TLHEDVMFYSRM had a protein stability index of 0.6843 ± 0.0067.
Sequence TLKPTHAPSPPP yielded a protein stability index of 0.672 ± 0.021.
In turn, TLLSPRRHPFAR registered a protein stability index of 0.674 ± 0.022.
On to TLLVLGLSWGLP, for which the protein stability index was found to be 0.618 ± 0.044.
For TLPEVELTRQPI the value was 0.747 ± 0.014.
TLPPPPLSTPTL gave a protein stability index of 0.643 ± 0.1.
TLPPPSLPPSSS: the protein stability index is 0.652 ± 0.071.
In the case of TLRILTRRGLVP, the protein stability index is 0.703 ± 0.12.
TLSHPAHLKPMR displayed a protein stability index of 0.669 ± 0.051.
TLSQILVSSSLS showed a protein stability index of 0.5896 ± 0.0019.
For TLSSVSEKVVHL the value was 0.675 ± 0.019.
TNGHNGQENGEE: the protein stability index was 0.602 ± 0.06.
As to TNTQRYRKTRST, the protein stability index came out at 0.721 ± 0.054.
For TNYQKANIRINN the value was 0.667 ± 0.035.
